Data on twelve molecules can be found in US20200317768A1 (published 2020).

Common to all, as to test: SPR (BIACORE), antibody captured, FcgR analyte
Assay [1] addresses T1, cynomolgus monkey FcγRIIa1 extracellular domain with C-terminal His-tag (cynomolgus monkey).
T1 construct: also called cyno FcgRIIa1; cynoFcγRIIa1
T1 chain: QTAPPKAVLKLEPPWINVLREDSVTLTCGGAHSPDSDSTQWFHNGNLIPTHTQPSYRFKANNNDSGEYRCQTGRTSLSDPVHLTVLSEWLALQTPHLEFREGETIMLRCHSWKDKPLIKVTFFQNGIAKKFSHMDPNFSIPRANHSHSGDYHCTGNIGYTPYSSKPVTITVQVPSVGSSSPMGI

Assay [2] addresses T2, human FcγRIIIaV extracellular domain with C-terminal His-tag (human, UniProt P08637 17-208).
T2 construct: also called human FcgRIIIaV

In assay [3] the target is T3, cynomolgus monkey FcγRIIIaS extracellular domain with C-terminal His-tag (cynomolgus monkey, UniProt Q8SPW2 21-206 at identity 1.00)).
T3 construct: also called cyno FcgRIIIaS; cynoFcγRIIIaS
T3 chain: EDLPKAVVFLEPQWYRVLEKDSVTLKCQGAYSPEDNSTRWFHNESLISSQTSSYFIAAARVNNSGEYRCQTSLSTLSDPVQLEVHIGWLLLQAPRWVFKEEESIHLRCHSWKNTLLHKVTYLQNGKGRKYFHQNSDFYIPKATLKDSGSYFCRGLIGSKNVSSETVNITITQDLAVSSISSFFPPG

Assay [4] concerns the target T4, cynomolgus monkey FcγRIIa2 extracellular domain with C-terminal His-tag (cynomolgus monkey).
T4 construct: also called cyno FcgRIIa2; cynoFcγRIIa2
T4 chain: T1 chain with P95T, T121A, I127K, A128S, K130N, D135N, R142Q

For assay [5], the target named is T5, human FcγRIIaH extracellular domain with C-terminal His-tag (human, UniProt P12318 34-217).
T5 construct: also called human FcgRIIaH; FcγRIIa (type H)
T5 sequence: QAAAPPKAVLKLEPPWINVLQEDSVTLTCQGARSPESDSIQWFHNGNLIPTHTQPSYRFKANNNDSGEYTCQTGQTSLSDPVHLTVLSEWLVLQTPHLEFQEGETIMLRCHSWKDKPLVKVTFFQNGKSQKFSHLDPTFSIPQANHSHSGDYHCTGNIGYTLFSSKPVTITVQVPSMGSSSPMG

Assay [6] deals with T6, cynomolgus monkey FcγRIIa3 extracellular domain with C-terminal His-tag (cynomolgus monkey).
T6 construct: also called cyno FcgRIIa3; cynoFcγRIIa3
T6 chain: T1 chain with P95T, T121A, A128S, H133P, D135N

Assay [7] deals with T7, human FcγRIIaR extracellular domain with C-terminal His-tag (human, UniProt P12318 34-217).
T7 construct: also called human FcgRIIaR; FcγRIIa (type R)
T7 chain: T5 sequence with H134R

For assay [8], the target named is T8, human FcγRIIb extracellular domain with C-terminal His-tag (human, UniProt P31994 43-217).
T8 construct: also called human FcgRIIb
T8 sequence: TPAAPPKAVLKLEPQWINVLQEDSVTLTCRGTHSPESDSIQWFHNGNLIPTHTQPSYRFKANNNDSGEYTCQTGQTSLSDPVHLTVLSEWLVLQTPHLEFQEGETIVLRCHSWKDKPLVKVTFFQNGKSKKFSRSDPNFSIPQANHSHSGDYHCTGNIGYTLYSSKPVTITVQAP

Substitutions are numbered along the chain they refer to.

Usually Kd stands for the constant that tells how readily two partners part at equilibrium.

T2 sequence (P08637 17-208 F176V): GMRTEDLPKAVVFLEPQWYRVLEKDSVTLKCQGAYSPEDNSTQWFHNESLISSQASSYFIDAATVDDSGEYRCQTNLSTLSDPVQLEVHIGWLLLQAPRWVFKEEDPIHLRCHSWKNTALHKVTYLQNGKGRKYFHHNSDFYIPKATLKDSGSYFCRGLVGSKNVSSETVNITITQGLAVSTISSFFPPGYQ

B1: M103205H795-MY514/M103202L889-SK1 (antibody, human IgG1, kappa)
heavy: QVTLKESGPVLVKPTETLTLTCTVSGIDLSHDDISWVRQAPGKGLEWVGIISYAGSTYYASWAKGRLTISKDTSKNQVVLTMTNMDPVDTATYYCARGVPAYSHGGDLWGQGTLVTVSSASTKGPSVFPLAPSSKSTSGGTAALGCLVKDYFPEPVTVSWNSGALTSGVHTFPAVLQSSGLYSLSSVVTVPSSSLGTQTYICNVNHKPSNTKVDKKVEPKSCDKTHTCPPCPAPELLTGPVVFLFPPKPKDTLMISRTPEVTCVVVDVSDEDPEVKFNWYVDGVEVHNAKTKPREEQYNLTYRVVSVLTVLHQDWLNGKEYKCKVSNKALPKPIEKTISKAKGQPREPQVYTLPPSREEMTKNQVSLTCLVKGFYPSDIAVEWESNGQPENNYKTTPPVLDSDGSFFLYSKLTVDKSRWQQGNVFSCSVMHEALHNHYTQKSLSLSP
light: DIVMTQSPATLSLSPGERATLSCTSSQSVYHANWLSWFQQKPGQPPKLLIYWASTLAYGVPSRFSGSGSGTDFTLTISSLQPEDAATYYCAGGYGGGRYAFGQGTKVEIKRTVAAPSVFIFPPSDEQLKSGTASVVCLLNNFYPREAKVQWKVDNALQSGNSQESVTEQDSKDSTYSLSSTLTLSKADYEKHKVYACEVTHQGLSSPVTKSFNRGEC
notes: Substitutions introduced into M103205H795-SG1, expressed with M103202L889-SK1 as light chain; EU numbering
Consider B1, for which the Kd in assay [1] worked out at 0.26 µM; in assay [2], 8.8 µM; in assay [3] it was 4.4 µM; in assay [4] it was 1.6 µM; in assay [5], 0.35 µM; in assay [6] it was 1.5 µM. For the same molecule, the Kd in assay [7] is 0.16 µM; in assay [8], 0.69 µM.

B2: M103205H795-MY521/M103202L889-SK1 (antibody, human IgG1, kappa)
heavy: B1 heavy with P234D, V241S, Q297L, L300S
light: B1 light
notes: as for B1
For the molecule B2, the Kd in assay [1] came to 2.5 µM; in assay [2], 5.2 µM; in assay [3] it was 2.2 µM; in assay [4], 33 µM; in assay [5], 0.39 µM; in assay [6], 4.4 µM. The Kd in assay [7] came out at 0.3 µM; in assay [8] it was 1.5 µM.

B3: M103205H795-MY525/M103202L889-SK1 (antibody, human IgG1, kappa)
heavy: B1 heavy with A233T, L300S
light: B1 light
notes: as for B1
For the molecule B3, the Kd is 1.6 µM in assay [1]; 4.3 µM in assay [2]; 1.4 µM in assay [3]; 1.1 µM in assay [4]; 0.21 µM in assay [5]; 1.1 µM in assay [6]. For the same molecule, the results for the Kd in assay [7] and in assay [8] were 0.16 µM and 1.2 µM, respectively.

B4: M103205H795-MY524/M103202L889-SK1 (antibody, human IgG1, kappa)
heavy: B1 heavy with A233G, V241S, Q297L, L300S
light: B1 light
notes: as for B1
For the molecule B4, the Kd turned out to be 1 µM in assay [1]; 4.5 µM in assay [2]; 2 µM in assay [3]; 11 µM in assay [4]; 0.11 µM in assay [5]; 2.7 µM in assay [6]. Moreover, the results for the equilibrium dissociation constant (Kd) in assay [7] and in assay [8] were 0.28 µM and 1 µM, respectively.

B5: M103205H795-MY523/M103202L889-SK1 (antibody, human IgG1, kappa)
heavy: B1 heavy with A233G, Q297L, L300S
light: B1 light
notes: as for B1
On to B5, for which the Kd is 1.4 µM in assay [1]; 5.5 µM in assay [2]; 2.1 µM in assay [3]; 1.3 µM in assay [4]; 0.19 µM in assay [5]; 1.1 µM in assay [6]. For the same molecule, the Kd in assay [7] is 0.21 µM; in assay [8] it was 1.1 µM.

B6: M103205H795-MY526/M103202L889-SK1 (antibody, human IgG1, kappa)
heavy: B1 heavy with A233T, Q297L, L300S
light: B1 light
notes: as for B1
B6: the Kd stood at 13 µM in assay [1]; 4.3 µM in assay [2]; 16 µM in assay [3]; 1.2 µM in assay [4]; 0.17 µM in assay [5]; 1.3 µM in assay [6]. Also, the Kd in assay [7] turned out to be 0.21 µM; in assay [8], 1.2 µM.

B7: M103205H795-MY515/M103202L889-SK1 (antibody, human IgG1, kappa)
heavy: B1 heavy with V241S, Q297L
light: B1 light
notes: as for B1
B7: the Kd in assay [1] came out at 0.14 µM; in assay [2], 9 µM; in assay [3] it was 3.8 µM; in assay [4], 1.6 µM; in assay [5], 0.22 µM; in assay [6], 2.9 µM. Further, the figures for the Kd in assay [7] and in assay [8] were 0.26 µM and 1.2 µM, respectively.

B8: M103205H795-MY516/M103202L889-SK1 (antibody, human IgG1, kappa)
heavy: B1 heavy with Q297L
light: B1 light
notes: as for B1
For the molecule B8, the dissociation constant Kd in assay [1] worked out at 0.15 µM; in assay [2], 6.7 µM; in assay [3], 3 µM; in assay [4] it was 13 µM; in assay [5], 0.22 µM; in assay [6], 0.79 µM. Moreover, the Kd in assay [7] turned out to be 0.085 µM; in assay [8] it was 0.51 µM.

B9: M103205H795-MY520/M103202L889-SK1 (antibody, human IgG1, kappa)
heavy: B1 heavy with P234D, Q297L, L300S
light: B1 light
notes: as for B1
Regarding B9, the Kd was determined as 2.5 µM in assay [1]; 3.5 µM in assay [2]; 2 µM in assay [3]; 2.3 µM in assay [4]; 0.49 µM in assay [5]; 2.1 µM in assay [6]. Moreover, the Kd in assay [7] was determined as 0.34 µM; in assay [8] it was 1.4 µM.

B10: M103205H795-MY527/M103202L889-SK1 (antibody, human IgG1, kappa)
heavy: B1 heavy with A233T, V241S, Q297L, L300S
light: B1 light
notes: as for B1
With B10, the Kd amounted to 1.1 µM in assay [1]; 4.3 µM in assay [2]; 1.5 µM in assay [3]; 1.3 µM in assay [4]; 0.11 µM in assay [5]; 3.4 µM in assay [6]. Moreover, the results for the Kd in assay [7] and in assay [8] were 0.29 µM and 1.4 µM, respectively.

B11: M103205H795-MY528/M103202L889-SK1 (antibody, human IgG1, kappa)
heavy: B1 heavy with L236W, V241S, L300S
light: B1 light
notes: as for B1
With B11, the Kd in assay [1] came to 1.4 µM; in assay [2] it was 4.2 µM; in assay [3], 2 µM; in assay [4] it was 1.5 µM; in assay [5] it was 0.39 µM; in assay [6], 3.2 µM. The Kd was determined as 0.36 µM in assay [7] and 2.2 µM in assay [8].

B12: M103205H795-MY522/M103202L889-SK1 (antibody, human IgG1, kappa)
heavy: B1 heavy with A233G, L300S
light: B1 light
notes: as for B1
Take B12: the Kd was determined as 1.7 µM in assay [1]; 5.7 µM in assay [2]; 1.9 µM in assay [3]; 1.2 µM in assay [4]; 0.24 µM in assay [5]; 0.93 µM in assay [6]. Moreover, the Kd in assay [7] turned out to be 0.17 µM; in assay [8], 1.1 µM.
